This is an account of results in paper PMC3187708 (The Journal of Cell Biology, 2011).

For this experiment, the target named is T1, 6His-FIP5 (human, UniProt Q9BXF6 1-653).
T1 sequence (looked up): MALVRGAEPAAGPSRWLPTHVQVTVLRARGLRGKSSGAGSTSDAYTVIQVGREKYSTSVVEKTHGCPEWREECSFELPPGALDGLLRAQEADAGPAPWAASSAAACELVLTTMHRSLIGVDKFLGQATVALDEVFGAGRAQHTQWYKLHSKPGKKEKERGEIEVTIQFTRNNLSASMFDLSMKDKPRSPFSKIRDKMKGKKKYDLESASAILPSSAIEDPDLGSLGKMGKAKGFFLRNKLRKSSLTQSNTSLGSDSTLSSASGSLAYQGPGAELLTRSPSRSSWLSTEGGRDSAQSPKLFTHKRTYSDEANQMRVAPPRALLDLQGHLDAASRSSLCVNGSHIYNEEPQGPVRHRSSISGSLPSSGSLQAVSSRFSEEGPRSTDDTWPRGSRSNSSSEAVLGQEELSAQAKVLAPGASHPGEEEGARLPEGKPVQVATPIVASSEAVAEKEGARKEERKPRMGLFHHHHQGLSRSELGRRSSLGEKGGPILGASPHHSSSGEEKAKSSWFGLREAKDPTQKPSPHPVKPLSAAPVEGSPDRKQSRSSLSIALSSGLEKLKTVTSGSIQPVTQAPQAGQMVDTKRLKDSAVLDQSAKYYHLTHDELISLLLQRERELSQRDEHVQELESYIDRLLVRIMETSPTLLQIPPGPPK
Description: ITC. A general note: ITC needs no label: the signal is the heat of the interaction.

B1: GST-SNX18 (natural protein, human, UniProt Q96RF0 1-628, looked up)
chain: MALRARALYDFRSENPGEISLREHEVLSLCSEQDIEGWLEGVNSRGDRGLFPASYVQVIRAPEPGPAGDGGPGAPARYANVPPGGFEPLPVAPPASFKPPPDAFQALLQPQQAPPPSTFQPPGAGFPYGGGALQPSPQQLYGGYQASQGSDDDWDDEWDDSSTVADEPGALGSGAYPDLDGSSSAGVGAAGRYRLSTRSDLSLGSRGGSVPPQHHPSGPKSSATVSRNLNRFSTFVKSGGEAFVLGEASGFVKDGDKLCVVLGPYGPEWQENPYPFQCTIDDPTKQTKFKGMKSYISYKLVPTHTQVPVHRRYKHFDWLYARLAEKFPVISVPHLPEKQATGRFEEDFISKRRKGLIWWMNHMASHPVLAQCDVFQHFLTCPSSTDEKAWKQGKRKAEKDEMVGANFFLTLSTPPAAALDLQEVESKIDGFKCFTKKMDDSALQLNHTANEFARKQVTGFKKEYQKVGQSFRGLSQAFELDQQAFSVGLNQAIAFTGDAYDAIGELFAEQPRQDLDPVMDLLALYQGHLANFPDIIHVQKGKAWPLEQVIWSVLCRLKGATLTAVPLWVSESYSTGEEASRDVDAWVFSLECKLDCSTGSFLLEYLALGNEYSFSKVQRVPLMTVLSF
In the case of B1, the Kd – broadly, the equilibrium constant for the complex coming apart – was 1.56 µM.
